{
  "source": "patent US20250320501A1",
  "about": "“PALMITOYLATION OF THE ALTERNATIVE AMINO TERMINUS OF THE BTK-C ISOFORM CONTROLS SUBCELLULAR DISTRIBUTION AND SIGNALING” (The Research Foundation for the State University of New York, priority 2022, published 2025)",
  "molecules": {"B1": {"name": "RANKL: ligand used for stimulation of BTK activation (protein, UniProt O14788 140-317, looked up)", "Tumor necrosis factor ligand …": "IRAEKAMVDGSWLDLAKRSKLEAQPFAHLTINATDIPSGSHKVSLSSWYHDRGWAKISNMTFSNGKLIVNQDGFYYLYANICFRHHETSGDLATEYLQLMVYVTKTSIKIPSSHTLMKGGSTKYWSGNSEFHFYSINVGGFFKLRSGEEISIEVSNPSLLDPDQDATYFGAFKVRDID"}},
  "tested_on": "BTK-A and BTK-C",
  "experiment": "Activating phosphorylation of BTK isoforms after stimulation with other ligands",
  "format": "cell-based, human",
  "conditions": "ligand stimulation (not shown)",
  "data": [
    {"molecule": "B1", "values": [
      {"measurement": "increase of activating phosphorylation levels above unstimulated levels", "result": "only modestly"}
    ]}
  ]
}
